* marks the point of attachment. HYNIC = NNc1ccc(C(=O)*)cn1
Tested on: human fibrin gel
Test: Gamma camera imaging of fibrin clot in rabbit femoral artery with 99mTc-labeled peptide
Type: in vivo
Settings: tricine coligand
Experimental: Preliminary imaging experiments were performed with ^99mTc-labeled DX-328 using tricine as a coligand. A human fibrin gel was formed around a small wire placed in the femoral artery of a rabbit. The radiolabeled imaging agent was injected into the ear vein of the rabbit, and images were taken using a gamma camera.
The intensity of radioactivity in the pulmonary region is due to circulating imaging agent that has not yet cleared. By increasing the time between injection and imaging, the background in the pulmonary region and elsewhere should be reduced as the unbound imaging agent clears through the kidneys. Alternatively, the same effect could be achieved by decreasing the clearance time of the imaging agent. This could be accomplished by using EDDA as a coligand instead of tricine.

Substance: Ac-WQPCPWESWTFCWDPGGGK(HYNIC)-NH2 (not fully specified (bridges); cysteine pairing not given here; also: 99mTc/tricine complex) [DX-328, HYNIC-labeled peptide, used 99mTc-labeled with tricine coligand]
- route of excretion of agent unbound to the clot (rabbit): renally excreted
- visualisation of clot in left thigh versus clot-free right thigh (ear vein injection, human fibrin gel on wire in femoral artery): can clearly be seen

Source: patent US6984373B2, “Fibrin binding moieties useful as imaging agents” (Dyax Corp., priority 2000, dated 2006)
